B1: BACE enzyme (refolded recombinant BACE as used in the fluorimetric activity assay) (protein)
chain: LPRETDEEPEEPGRRGSFVEMVDNLRGKSGQGYYVEMTVGSPPQTLNILVDTGSSNFAVGAAPHPFLHRYYQRQLSSTYRDLRKGVYVPYTQGKWEGELGTDLVSIPHGPNVTVRANIAAITESDKFFINGSNWEGILGLAYAEIARPDDSLEPFFDSLVKQTHVPNLFSLQLCGAGFPLNQSEVLASVGGSMIIGGIDHSLYTGSLWYTPIRREWYYEVIIVRVEINGQDLKMDCKEYNYDKSIVDSGTTNLRLPKKVFEAAVKSIKAASSTEKFPDGFWLGEQLVCWQAGTTPWNIFPVISLYLMGEVTNQSFRITILPQQYLRPVEDVATSQDDCYKFAISQSSTGTVMGAVIMEGFYVVFDRARKRIGFAVSACHVHDEFRTAAVEGPFVTLDMEDCGYNIPQTDES
B2: Clostripain (Cp; EC 3.4.22.8, from Worthington or Sigma C7403) (protein)
chain: NKNQKVTIMYYCDADNNLEGSLLNDIEEMKTGYKDSPNLNLIALVDRSPRYSSDEKVLGEDFSDTRLYKIEHNKANRLDGKNEFPEISTTSKYEANMGDPEVLKKFIDYCKSNYEADKYVLIMANHGGGAREKSNPRLNRAICWDDSNLDKNGEADCLYMGEISDHLTEKQSVDLLAFDACLMGTAEVAYQYRPGNGGFSADTLVASSPVVWGPGFKYDKIFDRIKAGGGTNNEDDLTLGGKEQNFDPATITNEQLGALFVEEQRDSTHANGRYDQHLSFYDLKKAESVKRAIDNLAVNLSNENKKSEIEKLRGSGIHTDLMHYFDEYSEGEWVEYPYFDVYDLCEKINKSENFSSKTKDLASNAMNKLNEMIVYSFGDPSNNFKEGKNGLSIFLPNGDKKYSTYYTSTKIPHWTMQSWYNSIDTVKYGLNPYGKLSWCKDGQDPEINKVGNWFELLDSWFDKTNDVTGGVNHYQW

Columns and labels:
[1] = target: BACE N->Q R56KR57K no His

Protein	activity (fluorimetric assay with the fluorescent peptide R-E(EDANS)-E-V-N-L-*D-A-E-F-K(DABCYL)-R-OH as substrate) (OM 99)	Cleavage position (ESI-TOF-MS), first intermediate fragment at 30-60 minutes post activation, observed parent mass 45838.30 [1]	Cleavage position (ESI-TOF-MS), fragment formed on digestion beyond 60 minutes, observed parent mass 44228.03 [1]	Cleavage position (ESI-TOF-MS), final fragment, observed parent mass 45783 (BACE WT R56KR57K)	Cleavage position (ESI-TOF-MS), first intermediate fragment (BACE WT R56KR57K)	Cleavage position (ESI-TOF-MS), final fragment, observed parent mass 46655 (BACE N->Q R56KR57K)
B1	1 mM OM 99 completely inhibits activity.					
B2		MASMTGGQQMGRGSMAGVLPAHGTQHGIRLPLRSGLGGAPLGLR ↓	EEPEEPGK ↓ KGSFVEMV . . .	MASMTGGQQMGRGSMAGVLPAHGTQHGIRLPLRSGLGGAPLGLR↓	MASMTGGQQMGR⇓GSMAGVLPAHGT . . .	MASMTGGQQMGRGSMAGVLPAHGTQHGIRLPLRSGLGGAPLGLR↓
